Source: patent publication US20220411483A1 (Chugai, published 2022)
Substitutions are numbered along the chain they refer to. Values belong to the binder of their own block, whether it stands above or below them.

Assays:
[1] = target: T1, human FcγRIIa H type extracellular domain with C-terminal His tag (human, UniProt P12318 34-217); test: SPR, KD of IL6R-G1d/IL6R-L divided by KD of variant
T1 construct: extracellular domain; also called FcgRIIaH
T1 sequence (looked up): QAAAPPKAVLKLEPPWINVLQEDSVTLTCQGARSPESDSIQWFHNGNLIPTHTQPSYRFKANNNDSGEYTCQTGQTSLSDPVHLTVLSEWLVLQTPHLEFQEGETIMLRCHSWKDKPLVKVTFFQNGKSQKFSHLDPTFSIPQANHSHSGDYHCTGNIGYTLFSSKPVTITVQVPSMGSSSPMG

[2] = target: T2, human FcγRIIIa V type extracellular domain with C-terminal His tag (human, UniProt P08637 17-208); test: as above
T2 construct: extracellular domain; also called FcgRIIIaV

[3] = target: T3, human FcγRIa extracellular domain with C-terminal His tag (human, UniProt P12314 16-292); test: as above
T3 construct: Whole entry named; also called FcgRIa

[4] = target: T4, human FcγRIIa R type extracellular domain with C-terminal His tag (human, UniProt P12318 34-217); test: as above
T4 construct: extracellular domain; also called FcgRIIaR
T4 sequence (looked up): T1 sequence (looked up) with H134R

[5] = target: T5, human FcγRIIb extracellular domain with C-terminal His tag (human, UniProt P31994 43-217); test: as above
T5 construct: extracellular domain; also called FcgRIIb
T5 sequence (looked up): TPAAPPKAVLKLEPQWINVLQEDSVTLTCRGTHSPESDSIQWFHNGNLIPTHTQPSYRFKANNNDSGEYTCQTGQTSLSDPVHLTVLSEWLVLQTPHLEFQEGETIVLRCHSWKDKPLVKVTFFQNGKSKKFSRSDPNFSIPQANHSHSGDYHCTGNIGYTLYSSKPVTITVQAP

[6] = target: T3, human FcγRIa extracellular domain with …; test: SPR, antibody captured, FcgR analyte
[7] = target: T4, human FcγRIIa R type extracellular …; test: SPR, antibody captured, FcgR analyte
[8] = target: T5, human FcγRIIb extracellular domain with …; test: SPR, antibody captured, FcgR analyte

T2 sequence (P08637 17-208 F176V): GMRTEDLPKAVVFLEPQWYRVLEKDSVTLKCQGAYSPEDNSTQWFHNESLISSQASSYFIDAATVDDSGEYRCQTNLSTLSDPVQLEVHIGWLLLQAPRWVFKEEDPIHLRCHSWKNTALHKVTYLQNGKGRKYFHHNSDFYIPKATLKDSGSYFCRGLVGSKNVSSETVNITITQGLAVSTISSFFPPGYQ
T3 sequence (P12314 16-292): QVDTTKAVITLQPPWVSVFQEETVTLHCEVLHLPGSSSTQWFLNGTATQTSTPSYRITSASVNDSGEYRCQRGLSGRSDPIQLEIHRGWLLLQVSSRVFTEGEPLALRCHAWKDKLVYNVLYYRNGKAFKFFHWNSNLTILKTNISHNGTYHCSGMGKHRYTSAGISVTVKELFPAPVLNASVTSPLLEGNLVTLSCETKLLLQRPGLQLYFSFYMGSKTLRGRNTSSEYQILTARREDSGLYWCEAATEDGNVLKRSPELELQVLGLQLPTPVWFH

Relative FcgRIIaH-binding Activity [1]: 0.03 | Relative FcgRIIIaV-binding Activity [2]: 0.007 | Relative FcgRIa-binding Activity [3]: 0.291 | Relative FcgRIIaR-binding Activity [4]: 0.65 | Relative FcgRIIb-binding Activity [5]: 40.4 | Kd [6]: 1.1 nM | Kd [7]: 1700 nM | Kd [8]: 52 nM
B1: IL6R-P756/IL6R-L (antibody, human IgG1, kappa)
heavy: QVQLQESGPGLVKPSETLSLTCAVSGHSISHDHAWSWVRQPPGEGLEWIGFISYSGITNYNPSLQGRVTISRDNSKNTLYLQMNSLRAEDTAVYYCARSLARTTAMDYWGEGTLVTVSSASTKGPSVFPLAPSSKSTSGGTAALGCLVKDYFPEPVTVSWNSGALTSGVHTFPAVLQSSGLYSLSSVVTVPSSSLGTQTYICNVNHKPSNTKVDKKVEPKSCDKTHTCPPCPAPDLLGGDSVFLFPPKPKDTLMISRTPEVTCVVIDVAEEDGEVKFNWYVDGVEVHNAKTKPREEQYNSTYRVVSVLTVLHQDWLNGKEYKCKVSNKGLPSSIEKTISKAKGQPREPQVYTLPPSRDELTKNQVSLTCLVKGFYPSDIAVEWESNGQPENNYKTTPPVLDSDGSFFLYSKLTVDKSRWQQGNVFSCSVMHEALHNHYTQKSLSLSP
light: not shown

Relative FcgRIIaH-binding Activity [1]: 0.006 | Relative FcgRIIIaV-binding Activity [2]: 0.009 | Relative FcgRIa-binding Activity [3]: 0.152 | Relative FcgRIIaR-binding Activity [4]: 0.41 | Relative FcgRIIb-binding Activity [5]: 15 | Kd [6]: 2.1 nM | Kd [7]: 2700 nM | Kd [8]: 140 nM
B2: IL6R-P773/IL6R-L (antibody, human IgG1, kappa)
heavy: B1 heavy with D235E, I266V, K324A, G329A, S332A, S333P
light: not shown

Relative FcgRIIaH-binding Activity [1]: 0.021 | Relative FcgRIIIaV-binding Activity [2]: 0.006 | Relative FcgRIa-binding Activity [3]: 0.029 | Relative FcgRIIaR-binding Activity [4]: 0.58 | Relative FcgRIIb-binding Activity [5]: 8.1 | Kd [6]: 11 nM | Kd [7]: 1900 nM | Kd [8]: 260 nM
B3: IL6R-P758/IL6R-L (antibody, human IgG1, kappa)
heavy: B1 heavy with D235E, G239D, I266V, A269S, E270D
light: not shown

Relative FcgRIIaH-binding Activity [1]: 0.006 | Relative FcgRIIIaV-binding Activity [2]: 0.007 | Relative FcgRIa-binding Activity [3]: 0.021 | Relative FcgRIIaR-binding Activity [4]: 0.32 | Relative FcgRIIb-binding Activity [5]: 12.4 | Kd [6]: 15 nM | Kd [7]: 3400 nM | Kd [8]: 170 nM
B4: IL6R-P770/IL6R-L (antibody, human IgG1, kappa)
heavy: B1 heavy with D235E, A269S, E270H
light: not shown

Relative FcgRIIaH-binding Activity [1]: 0.007 | Relative FcgRIIIaV-binding Activity [2]: 0.006 | Relative FcgRIa-binding Activity [3]: 0.027 | Relative FcgRIIaR-binding Activity [4]: 0.38 | Relative FcgRIIb-binding Activity [5]: 28.4 | Kd [6]: 12 nM | Kd [7]: 2900 nM | Kd [8]: 74 nM
B5: IL6R-P769/IL6R-L (antibody, human IgG1, kappa)
heavy: B1 heavy with D235E, A269S, E270H, G329A, S332A, S333P
light: not shown

Relative FcgRIIaH-binding Activity [1]: 0.027 | Relative FcgRIIIaV-binding Activity [2]: 0.008 | Relative FcgRIa-binding Activity [3]: 0.021 | Relative FcgRIIaR-binding Activity [4]: 0.69 | Relative FcgRIIb-binding Activity [5]: 11.1 | Kd [6]: 15 nM | Kd [7]: 1600 nM | Kd [8]: 190 nM
B6: IL6R-P760/IL6R-L (antibody, human IgG1, kappa)
heavy: B1 heavy with D235E, G239D, I266V, A269S
light: not shown

Relative FcgRIIaH-binding Activity [1]: 0.026 | Relative FcgRIIIaV-binding Activity [2]: 0.008 | Relative FcgRIa-binding Activity [3]: 0.188 | Relative FcgRIIaR-binding Activity [4]: 0.48 | Relative FcgRIIb-binding Activity [5]: 21 | Kd [6]: 1.7 nM | Kd [7]: 2300 nM | Kd [8]: 100 nM
B7: IL6R-P757/IL6R-L (antibody, human IgG1, kappa)
heavy: B1 heavy with D235E
light: not shown

Relative FcgRIIaH-binding Activity [1]: 0.007 | Relative FcgRIIIaV-binding Activity [2]: 0.01 | Relative FcgRIa-binding Activity [3]: 0.023 | Relative FcgRIIaR-binding Activity [4]: 0.26 | Relative FcgRIIb-binding Activity [5]: 15 | Kd [6]: 14 nM | Kd [7]: 4300 nM | Kd [8]: 140 nM
B8: IL6R-P771/IL6R-L (antibody, human IgG1, kappa)
heavy: B1 heavy with D235E, A269S, E270H, K324A, G329A, S332A, S333P
light: not shown

Relative FcgRIIaH-binding Activity [1]: 0.021 | Relative FcgRIIIaV-binding Activity [2]: 0.007 | Relative FcgRIa-binding Activity [3]: 0.052 | Relative FcgRIIaR-binding Activity [4]: 0.32 | Relative FcgRIIb-binding Activity [5]: 3.8 | Kd [6]: 6.1 nM | Kd [7]: 3400 nM | Kd [8]: 550 nM
B9: IL6R-P762/IL6R-L (antibody, human IgG1, kappa)
heavy: B1 heavy with D235E, I266V, A269S, E270H
light: not shown

Relative FcgRIIaH-binding Activity [1]: 0.024 | Relative FcgRIIIaV-binding Activity [2]: 0.005 | Relative FcgRIa-binding Activity [3]: 0.058 | Relative FcgRIIaR-binding Activity [4]: 0.79 | Relative FcgRIIb-binding Activity [5]: 14 | Kd [6]: 5.5 nM | Kd [7]: 1400 nM | Kd [8]: 150 nM
B10: IL6R-P759/IL6R-L (antibody, human IgG1, kappa)
heavy: B1 heavy with G239D, I266V, A269S, E270D
light: not shown

Relative FcgRIIaH-binding Activity [1]: 0.02 | Relative FcgRIIIaV-binding Activity [2]: 0.005 | Relative FcgRIa-binding Activity [3]: 0.059 | Relative FcgRIIaR-binding Activity [4]: 0.39 | Relative FcgRIIb-binding Activity [5]: 17.5 | Kd [6]: 5.4 nM | Kd [7]: 2800 nM | Kd [8]: 120 nM
B11: IL6R-P767/IL6R-L (antibody, human IgG1, kappa)
heavy: B1 heavy with D235E, A269S
light: not shown

Relative FcgRIIaH-binding Activity [1]: 0.034 | Relative FcgRIIIaV-binding Activity [2]: 0.014 | Relative FcgRIa-binding Activity [3]: 0.438 | Relative FcgRIIaR-binding Activity [4]: 0.69 | Relative FcgRIIb-binding Activity [5]: 21 | Kd [6]: 0.73 nM | Kd [7]: 1600 nM | Kd [8]: 100 nM
B12: IL6R-P763/IL6R-L (antibody, human IgG1, kappa)
heavy: B1 heavy with D235E, I266V, G329A, S332A, S333P
light: not shown

Relative FcgRIIaH-binding Activity [1]: 0.006 | Relative FcgRIIIaV-binding Activity [2]: 0.006 | Relative FcgRIa-binding Activity [3]: 0.035 | Relative FcgRIIaR-binding Activity [4]: 0.35 | Relative FcgRIIb-binding Activity [5]: 21.6 | Kd [6]: 9.1 nM | Kd [7]: 3100 nM | Kd [8]: 97 nM
B13: IL6R-P772/IL6R-L (antibody, human IgG1, kappa)
heavy: B1 heavy with D235E, A269S, E270H, K324E, G329A, S332A, S333P
light: not shown

Relative FcgRIIaH-binding Activity [1]: 0.036 | Relative FcgRIIIaV-binding Activity [2]: 0.008 | Relative FcgRIa-binding Activity [3]: 0.04 | Relative FcgRIIaR-binding Activity [4]: 1 | Relative FcgRIIb-binding Activity [5]: 17.5 | Kd [6]: 8 nM | Kd [7]: 1100 nM | Kd [8]: 120 nM
B14: IL6R-P761/IL6R-L (antibody, human IgG1, kappa)
heavy: B1 heavy with G239D, I266V, A269S
light: not shown

Relative FcgRIIaH-binding Activity [1]: 0.026 | Relative FcgRIIIaV-binding Activity [2]: 0.006 | Relative FcgRIa-binding Activity [3]: 0.086 | Relative FcgRIIaR-binding Activity [4]: 0.52 | Relative FcgRIIb-binding Activity [5]: 42 | Kd [6]: 3.7 nM | Kd [7]: 2100 nM | Kd [8]: 50 nM
B15: IL6R-P764/IL6R-L (antibody, human IgG1, kappa)
heavy: B1 heavy with D235E, A269S, G329A, S332A, S333P
light: not shown

Relative FcgRIIaH-binding Activity [1]: 0.027 | Relative FcgRIIIaV-binding Activity [2]: 0.008 | Relative FcgRIa-binding Activity [3]: 0.097 | Relative FcgRIIaR-binding Activity [4]: 0.39 | Relative FcgRIIb-binding Activity [5]: 12.4 | Kd [6]: 3.3 nM | Kd [7]: 2800 nM | Kd [8]: 170 nM
B16: IL6R-P768/IL6R-L (antibody, human IgG1, kappa)
heavy: B1 heavy with D235E, E270H
light: not shown

Relative FcgRIIaH-binding Activity [1]: 0.028 | Relative FcgRIIIaV-binding Activity [2]: 0.008 | Relative FcgRIa-binding Activity [3]: 0.178 | Relative FcgRIIaR-binding Activity [4]: 0.52 | Relative FcgRIIb-binding Activity [5]: 39.6 | Kd [6]: 1.8 nM | Kd [7]: 2100 nM | Kd [8]: 53 nM
B17: IL6R-P765/IL6R-L (antibody, human IgG1, kappa)
heavy: B1 heavy with D235E, E270H, G329A, S332A, S333P
light: not shown

Relative FcgRIIaH-binding Activity [1]: 0.025 | Relative FcgRIIIaV-binding Activity [2]: 0.008 | Relative FcgRIa-binding Activity [3]: 0.33 | Relative FcgRIIaR-binding Activity [4]: 0.5 | Relative FcgRIIb-binding Activity [5]: 7.2 | Kd [6]: 0.97 nM | Kd [7]: 2200 nM | Kd [8]: 290 nM
B18: IL6R-P766/IL6R-L (antibody, human IgG1, kappa)
heavy: B1 heavy with D235E, I266V
light: not shown

Relative FcgRIIaH-binding Activity [1]: 0.008 | Relative FcgRIIIaV-binding Activity [2]: 0.012 | Relative FcgRIa-binding Activity [3]: 0.291 | Relative FcgRIIaR-binding Activity [4]: 0.55 | Relative FcgRIIb-binding Activity [5]: 23.9 | Kd [6]: 1.1 nM | Kd [7]: 2000 nM | Kd [8]: 88 nM
B19: IL6R-P774/IL6R-L (antibody, human IgG1, kappa)
heavy: B1 heavy with D235E, I266V, K324E, G329A, S332A, S333P
light: not shown
